# Reference: patent publication US6881824B1, “Peptides suitable for use in antigen specific immunosuppressive therapy” (Akzo Nobel N.V., priority 1996, dated 2005)
# Assays:
# [1] = system: Balb/c mouse; test: HC gp-39 administration in Balb/c mice (arthritis); type: in vivo; settings: administration of HC gp-39
# [2] = biological target: T1, DR4 (DRB1*0401) molecules purified from the homozygous EBV-transformed human B lymphoblastoid cell line … (human, UniProt P01903 26-254)
# [3] = biological target: T1, DR4 (DRB1*0401) molecules purified from …; test: competition binding assay on purified DR4(DRB1*0401)
molecule,measurement,setting,value
Human Cartilage glycoprotein 39 [HC gp-39],Arthritic development,[1],delayed and/or suppressed arthritic development
same,Immunological tolerance,[1],resulted in immunological tolerance
DFQGSFCGQDLRFPLT [HC gp-39 peptide 57 (residues 358-373)],IC50,[2],1000 to 10000 nM
same,binding result,[3],binds
LDRFLCTHIIYSFANI [HC gp-39 peptide 5 (residues 46-61)],IC50,[2],< 1000 nM
same,binding result,[3],binds
THIIYSFANISNDHID [HC gp-39 peptide 6 (residues 52-67)],IC50,[2],< 1000 nM
same,binding result,[3],binds
FSKIASNTQSRRTFIK (This is probably a misprint) [HC gp-39 peptide 15 (residues 106-121)],IC50,[2],< 1000 nM
same,binding result,[3],binds
SCFPDALDRFLCTHII [HC gp-39 peptide 4 (residues 40-55)],IC50,[2],10000 to 100000 nM
same,binding result,[3],binds
